Molecular target: HLA-A*02:01 (Homo sapiens, UniProt P04439, D140Y/D185E/D98H/E176V/E277Q/G131W/G231S/I119V/I121R/I166T/I218V/L300P/L318F/N151K/N90K/P208A/P217A/Q86G/Q94H/R138H/R169H/T345S)
Experiment: MHC binding assay (UV-ligand exchange, beta2m ELISA)
Conditions: binding of HLA-class I restricted peptides to HLA-A*02:01, β2m ELISA
From the text: Candidate peptides for T cell based therapies according to the present invention were further tested for their MHC binding capacity (affinity). The individual peptide-MHC complexes were produced by UV-ligand exchange, where a UV-sensitive peptide is cleaved upon UV-irradiation, and exchanged with the peptide of interest as analyzed. Only peptide candidates that can effectively bind and stabilize the peptide-receptive MHC molecules prevent dissociation of the MHC complexes. To determine the yield of the exchange reaction, an ELISA was performed based on the detection of the light chain (β2m) of stabilized MHC complexes. The assay was performed as generally described in Rodenko et al. (Rodenko et al., 2006).
96 well MAXISorp plates (NUNC) were coated over night with 2 ug/ml streptavidin in PBS at room temperature, washed 4× and blocked for 1 h at 37° C. in 2% BSA containing blocking buffer. Refolded HLA-A*02:01/MLA-001 monomers served as standards, covering the range of 15-500 ng/ml. Peptide-MHC monomers of the UV-exchange reaction were diluted 100 fold in blocking buffer. Samples were incubated for 1 h at 37° C., washed four times, incubated with 2 ug/ml HRP conjugated anti-β2m for 1 h at 37° C., washed again and detected with TMB solution that is stopped with […]. Absorption was measured at 450 nm. Candidate peptides that show a high exchange yield (preferably higher than 50%, most preferred higher than 75%) are generally preferred for a generation and production of antibodies or fragments thereof, and/or T cell receptors or fragments thereof, as they show sufficient avidity to the MHC molecules and prevent dissociation of the MHC complexes.

Row | Substance | Peptide Exchange (MHC class I binding score, peptide exchange yield)
1 | 148 (SIVASLITV; listed as Homo sapiens) [compound 148] | “+++” (≥50 = +++)
2 | 149 (SLDNGGYYI; listed as Homo sapiens) [compound 149] | “+++” (≥50 = +++)
3 | 150 (SLFDQPLSII; listed as Homo sapiens) [compound 150] | “+++” (≥50 = +++)
4 | 152 (SLIRILQTI; listed as Homo sapiens) [compound 152] | “+++” (≥50 = +++)
5 | 153 (SLLAELHVL; listed as Homo sapiens) [compound 153] | “+++” (≥50 = +++)
6 | 156 (SLNIGDVQL; listed as Homo sapiens) [compound 156] | “+++” (≥50 = +++)
7 | 157 (SLNIRDFTM; listed as Homo sapiens) [compound 157] | “+++” (≥50 = +++)
8 | 158 (SLPEAPLDV; listed as Homo sapiens) [compound 158] | “+++” (≥50 = +++)
9 | 159 (SLQEEKLIYV; listed as Homo sapiens) [compound 159] | “+++” (≥50 = +++)
10 | 160 (SLSFLVPSL; listed as Homo sapiens) [compound 160] | “+++” (≥50 = +++)
11 | 161 (SMDDGMINV; listed as Homo sapiens) [compound 161] | “+++” (≥50 = +++)
12 | 162 (SMKDDLENV; listed as Homo sapiens) [compound 162] | “++” (≥20% = ++)
13 | 166 (TLDPNQVSL; listed as Homo sapiens) [compound 166] | “++” (≥20% = ++)
14 | 167 (TLDTSKLYV; listed as Homo sapiens) [compound 167] | “+++” (≥50 = +++)
15 | 169 (TLLLGLTEV; listed as Homo sapiens) [compound 169] | “+++” (≥50 = +++)
16 | 170 (TLTFRVETV; listed as Homo sapiens) [compound 170] | “+++” (≥50 = +++)
17 | 171 (TLVPPAALISI; listed as Homo sapiens) [compound 171] | “+++” (≥50 = +++)
18 | 173 (TVIENIHTI; listed as Homo sapiens) [compound 173] | “++” (≥20% = ++)

Row | Substance | Peptide Exchange (MHC class I binding score, peptide exchange yield)
19 | 176 (VLAEQNIIPSA; listed as Homo sapiens) [compound 176] | “+++” (≥50 = +++)
20 | 179 (VLLGLEMTL; listed as Homo sapiens) [compound 179] | “+++” (≥50 = +++)
21 | 181 (VLLSIPFVSV; listed as Homo sapiens) [compound 181] | “+++” (≥50 = +++)
22 | 184 (VLSHNLYTV; listed as Homo sapiens) [compound 184] | “+++” (≥50 = +++)
23 | 185 (VMDDQRDLI; listed as Homo sapiens) [compound 185] | “++” (≥20% = ++)
24 | 187 (VMDTHLVNI; listed as Homo sapiens) [compound 187] | “++++” (≥75% = ++++)
25 | 188 (VMGDIPAAV; listed as Homo sapiens) [compound 188] | “++” (≥20% = ++)
26 | 189 (VMLEMTPEL; listed as Homo sapiens) [compound 189] | “+++” (≥50 = +++)
27 | 193 (YLDLSNNRL; listed as Homo sapiens) [compound 193] | “+++” (≥50 = +++)
28 | 194 (YLDNVLAEL; listed as Homo sapiens) [compound 194] | “++++” (≥75% = ++++)
29 | 198 (YLTFLPAEV; listed as Homo sapiens) [compound 198] | “+++” (≥50 = +++)
30 | 203 (ALLSSQLAL; listed as Homo sapiens) [compound 203] | “+++” (≥50 = +++)
31 | 205 (GLSQANFTL; listed as Homo sapiens) [compound 205] | “+++” (≥50 = +++)
32 | 207 (IIADLDTTIMFA; listed as Homo sapiens) [compound 207] | “+++” (≥50 = +++)
33 | 210 (KLLVQDFFL; listed as Homo sapiens) [compound 210] | “+++” (≥50 = +++)
34 | 211 (LIDVKPLGV; listed as Homo sapiens) [compound 211] | “+++” (≥50 = +++)
35 | 215 (VMQDIVYKL; listed as Homo sapiens) [compound 215] | “+++” (≥50 = +++)

Continued, values first:

Row | Peptide Exchange (MHC class I binding score, peptide exchange yield) | Substance
36 | “+++” (≥50 = +++) | 147 (SILETVATL; listed as Homo sapiens) [compound 147]
37 | “+++” (≥50 = +++) | 151 (SLFDSAYGA; listed as Homo sapiens) [compound 151]
38 | “+++” (≥50 = +++) | 155 (SLMLEVPAL; listed as Homo sapiens) [compound 155]
39 | “+++” (≥50 = +++) | 163 (SQLDISEPYKV; listed as Homo sapiens) [compound 163]
40 | “+++” (≥50 = +++) | 164 (SVHKGFAFV; listed as Homo sapiens) [compound 164]
41 | “++” (≥20% = ++) | 165 (TLDDDLDTV; listed as Homo sapiens) [compound 165]
42 | “++++” (≥75% = ++++) | 168 (YLLDQSFVM; listed as Homo sapiens) [compound 168]
43 | “+++” (≥50 = +++) | 172 (TLYDMLASI; listed as Homo sapiens) [compound 172]
44 | “+++” (≥50 = +++) | 174 (VLAELPIIVV; listed as Homo sapiens) [compound 174]
45 | “+++” (≥50 = +++) | 175 (FTVPRVVAV; listed as Homo sapiens) [compound 175]
46 | “+++” (≥50 = +++) | 177 (VLDDRELLL; listed as Homo sapiens) [compound 177]
47 | “+++” (≥50 = +++) | 178 (VLFFNVQEV; listed as Homo sapiens) [compound 178]
48 | “++” (≥20% = ++) | 180 (LLKDGPEIGL; listed as Homo sapiens) [compound 180]
49 | “+++” (≥50 = +++) | 182 (VLLSVPGPPV; listed as Homo sapiens) [compound 182]
50 | “+++” (≥50 = +++) | 183 (VLMPTVYQQGV; listed as Homo sapiens) [compound 183]
51 | “++++” (≥75% = ++++) | 186 (VMDPTKILI; listed as Homo sapiens) [compound 186]
52 | “+++” (≥50 = +++) | 190 (VVMGTVPRL; listed as Homo sapiens) [compound 190]
53 | “+++” (≥50 = +++) | 191 (YIFDGSDGGV; listed as Homo sapiens) [compound 191]
54 | “++++” (≥75% = ++++) | 195 (YLGGFALSV; listed as Homo sapiens) [compound 195]
55 | “+” (≥10% = +) | 196 (YLLLQTYVL; listed as Homo sapiens) [compound 196]
56 | “++++” (≥75% = ++++) | 199 (YLVELSSLL; listed as Homo sapiens) [compound 199]
57 | “+++” (≥50 = +++) | 204 (GLLQINDKIAL; listed as Homo sapiens) [compound 204]
58 | “+++” (≥50 = +++) | 206 (HMQDVRVLL; listed as Homo sapiens) [compound 206]
59 | “+++” (≥50 = +++) | 208 (ILLKTEGINL; listed as Homo sapiens) [compound 208]
60 | “+++” (≥50 = +++) | 209 (ILQAELPSL; listed as Homo sapiens) [compound 209]
61 | “+++” (≥50 = +++) | 214 (RLQELTEKL; listed as Homo sapiens) [compound 214]

From patent US10064928B2, “Peptides and combination of peptides for use in immunotherapy against CLL and other cancers” (IMMATICS BIOTECHNOLOGIES GMBH, priority 2015, dated 2018)
